Assay results from paper PMC9055099, “Transcription factor CsWRKY40 regulates L-theanine hydrolysis by activating the CsPDX2.1 promoter in tea leaves during withering”.

Tests used:
CsWRKY40 [1] = target: T1, CsWRKY40 (Camellia sinensis, UniProt A0A4S4ET85 1-292); assay: competition; unlabelled competitor against biotin probe N1; shift gradually reduced with increasing cold probe; LightShift Chemiluminescent EMSA kit (ThermoFisher) per instructions; buffer, salt, pH and temperature not stated; details: protein: recombinant; tags: GST (pGEX-4T-1); blunt
CsWRKY40 [2] = target: T1, CsWRKY40; assay: EMSA; LightShift Chemiluminescent EMSA kit (ThermoFisher) per instructions; buffer, salt, pH and temperature not stated; details: protein: recombinant; tags: GST (pGEX-4T-1); label: 3' biotin on both strands; blunt

T1 sequence (A0A4S4ET85 entry or part of it): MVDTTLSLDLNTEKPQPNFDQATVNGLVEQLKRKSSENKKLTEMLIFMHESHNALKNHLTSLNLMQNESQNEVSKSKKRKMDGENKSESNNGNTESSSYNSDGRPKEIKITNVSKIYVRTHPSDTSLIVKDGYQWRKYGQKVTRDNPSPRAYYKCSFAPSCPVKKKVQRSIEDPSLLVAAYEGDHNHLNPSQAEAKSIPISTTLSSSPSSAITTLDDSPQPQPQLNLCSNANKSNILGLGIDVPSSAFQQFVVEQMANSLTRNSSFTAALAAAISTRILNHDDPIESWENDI

Binder	binding result (CsWRKY40 [1])	binding result (CsWRKY40 [2])
cold probe (W box 2) (dsDNA) DNA 1: TTTATTTAAGAATTGACCGTAGATAACTTT DNA 2: AAAGTTATCTACGGTCAATTCTTAAATAAA	binds	
mutant probe (TTGACC to AAAAAA) (dsDNA) DNA 1: TTTATTTAAGAAAAAAAAGTAGATAACTTT DNA 2: AAAGTTATCTACTTTTTTTTCTTAAATAAA		no binding
CsPDX2.1 promoter W box 2 biotin probe (dsDNA) DNA 1: TTTATTTAAGAATTGACCGTAGATAACTTT DNA 2: AAAGTTATCTACGGTCAATTCTTAAATAAA		binds
